Results on 44 molecules are retold here after patent publication US20120045438A1 (Janssen / Centocor, published 2012).

Numbering of substitutions follows the chain as printed.

The target in this assay is T1, human IL-13 R130Q variant (R110Q of the mature chain) (human, UniProt P35225 35-146, Biotinylated on amines (NHS-LC-biotin, 4:1) in ELISA, panning and competition assays. The letters are unchanged.).
T1 construct: R130Q counts from Met 1 of the signal peptide, R110Q on the mature chain; Bought from Peprotech; also called IL-13 R110Q; b-R130Q
In words: single-point (10 nM) phage Fab ELISA on biotinylated IL-13 R130Q. On the technique in general: In an ELISA, binding on a coated surface is turned into a signal by an enzyme label.

B1: Phage # 54 Fab (IL-13-142 library) (Fab, V domains shown)
VH: QVTLKESGPVLVKPTETLTLTCTVSGFSLSTYGMGVGWIRQPPGKALEWLAHIWWDDVKRYNPALKSRLTISKDTSKSQVVLTMTNMDPVDTATYYCARMGSDYDVWFDYWGQGTLVTVSS
VL: DIQMTQSPSTLSASVGDRVTITCRASKSISKYLAWYQQKPGKAPKLLIYSGSTLQSGVPSRFSGSGSGTEFTLTISSLQPDDFATYYCQQHDWGPYTFGGGTKVEIK
notes: Fab on phage pIX
For the molecule B1, the “% of Lc16Hc7” value is 361%.

B2: Phage # 51 Fab (IL-13-142 library) (Fab, V domains shown)
VH: B1 VH
VL: B1 VL with D92S, W93A
notes: Fab on phage pIX
Regarding B2, the “% of Lc16Hc7” value stood at 192%.

B3: Phage # 27 Fab (IL-13-142 library) (Fab, V domains shown)
VH: B1 VH
VL: B1 VL with D92N, W93D, G94S
notes: Fab on phage pIX
As to B3, the “% of Lc16Hc7” value is 238%.

B4: Phage # 22 Fab (IL-13-142 library) (Fab, V domains shown)
VH: B1 VH
VL: B1 VL with W93P
notes: Fab on phage pIX
B4: the “% of Lc16Hc7” value is 313%.

B5: Phage # 04 Fab (IL-13-142 library) (Fab, V domains shown)
VH: B1 VH
VL: B1 VL with H91Q, W93L
notes: Fab on phage pIX
For the molecule B5, the “% of Lc16Hc7” value worked out at 127%.

B6: Phage # 21 Fab (IL-13-142 library) (Fab, V domains shown)
VH: B1 VH
VL: B1 VL with H91W, D92S, W93D
notes: Fab on phage pIX
In the case of B6, the “% of Lc16Hc7” value came out at 276%.

B7: Phage # 61 Fab (IL-13-142 library) (Fab, V domains shown)
VH: B1 VH
VL: B1 VL with D92L, W93F, G94T
notes: Fab on phage pIX
As to B7, the “% of Lc16Hc7” value was determined as 245%.

B8: Phage # 82 Fab (IL-13-142 library) (Fab, V domains shown)
VH: B1 VH
VL: B1 VL with W93V, G94S
notes: Fab on phage pIX
As to B8, the “% of Lc16Hc7” value was 342%.

B9: Phage # 78 Fab (IL-13-142 library) (Fab, V domains shown)
VH: B1 VH
VL: B1 VL with D92L, W93M, G94A
notes: Fab on phage pIX
Regarding B9, the “% of Lc16Hc7” value was found to be 154%.

B10: Phage # 46 Fab (IL-13-142 library) (Fab, V domains shown)
VH: B1 VH
VL: B1 VL with D92V, W93T, G94L
notes: Fab on phage pIX
As to B10, the “% of Lc16Hc7” value is 281%.

B11: Phage # 39 Fab (IL-13-142 library) (Fab, V domains shown)
VH: B1 VH
VL: B1 VL with D92L, W93G, G94V
notes: Fab on phage pIX
Take B11: the “% of Lc16Hc7” value is 178%.

B12: Phage # 16 Fab (IL-13-142 library) (Fab, V domains shown)
VH: B1 VH
VL: B1 VL with D92V, W93G
notes: Fab on phage pIX
In the case of B12, the “% of Lc16Hc7” value was determined as 206%.

B13: Phage # 29 Fab (IL-13-142 library) (Fab, V domains shown)
VH: B1 VH
VL: B1 VL with D92W, W93M, G94A
notes: Fab on phage pIX
Take B13: the “% of Lc16Hc7” value was 182%.

B14: Phage # 55 Fab (IL-13-142 library) (Fab, V domains shown)
VH: B1 VH
VL: B1 VL with D92L, W93T, G94N
notes: Fab on phage pIX
For B14, the “% of Lc16Hc7” value is 355%.

B15: Phage # 10 Fab (IL-13-142 library) (Fab, V domains shown)
VH: B1 VH
VL: B1 VL with D92L
notes: Fab on phage pIX
As for B15, the “% of Lc16Hc7” value was found to be 318%.

B16: Phage # 65 Fab (IL-13-142 library) (Fab, V domains shown)
VH: B1 VH
VL: B1 VL with W93F, G94V
notes: Fab on phage pIX
With B16, the “% of Lc16Hc7” value came out at 147%.

B17: Phage # 40 Fab (IL-13-142 library) (Fab, V domains shown)
VH: B1 VH
VL: B1 VL with D92S, W93R
notes: Fab on phage pIX
Take B17: the “% of Lc16Hc7” value is 179%.

B18: Phage # 81 Fab (IL-13-142 library) (Fab, V domains shown)
VH: B1 VH
VL: B1 VL with W93V
notes: Fab on phage pIX
On to B18, for which the “% of Lc16Hc7” value worked out at 231%.

B19: Phage # 57 Fab (IL-13-142 library) (Fab, V domains shown)
VH: B1 VH
VL: B1 VL with G94E
notes: Fab on phage pIX
Regarding B19, the “% of Lc16Hc7” value stood at 245%.

B20: Phage # 31 Fab (IL-13-142 library) (Fab, V domains shown)
VH: B1 VH
VL: B1 VL with D92F, W93R, G94R
notes: Fab on phage pIX
In the case of B20, the “% of Lc16Hc7” value was 288%.

B21: Phage # 09 Fab (IL-13-142 library) (Fab, V domains shown)
VH: B1 VH
VL: B1 VL with D92L, W93D, G94V
notes: Fab on phage pIX
With B21, the “% of Lc16Hc7” value stood at 171%.

B22: Phage # 56 Fab (IL-13-142 library) (Fab, V domains shown)
VH: B1 VH
VL: B1 VL with D92W, W93D, G94A
notes: Fab on phage pIX
Turning to B22, the “% of Lc16Hc7” value was 234%.

B23: Phage # 30 Fab (IL-13-142 library) (Fab, V domains shown)
VH: B1 VH
VL: B1 VL with D92L
notes: Fab on phage pIX
Turning to B23, the “% of Lc16Hc7” value was determined as 140%.

B24: Phage # 13 Fab (IL-13-142 library) (Fab, V domains shown)
VH: B1 VH
VL: B1 VL with D92E
notes: Fab on phage pIX
Consider B24, for which the “% of Lc16Hc7” value was 196%.

B25: Phage # 06 Fab (IL-13-142 library) (Fab, V domains shown)
VH: B1 VH
VL: B1 VL with H91P, D92L, W93T, G94H
notes: Fab on phage pIX
In the case of B25, the “% of Lc16Hc7” value turned out to be 232%.

B26: Phage # 15 Fab (IL-13-142 library) (Fab, V domains shown)
VH: B1 VH
VL: B1 VL with H91P, D92L, W93D, G94A
notes: Fab on phage pIX
For B26, the “% of Lc16Hc7” value was 154%.

B27: Phage # 05 Fab (IL-13-142 library) (Fab, V domains shown)
VH: B1 VH
VL: B1 VL with D92V, W93S
notes: Fab on phage pIX
As for B27, the “% of Lc16Hc7” value came out at 320%.

B28: Phage # 47 Fab (IL-13-142 library) (Fab, V domains shown)
VH: B1 VH
VL: B1 VL with H91L, D92T, W93Y, G94E
notes: Fab on phage pIX
As to B28, the “% of Lc16Hc7” value amounted to 233%.

B29: Phage # 72 Fab (IL-13-142 library) (Fab, V domains shown)
VH: B1 VH
VL: B1 VL with D92N, W93E
notes: Fab on phage pIX
Consider B29, for which the “% of Lc16Hc7” value was 114%.

B30: Phage # 11 Fab (IL-13-142 library) (Fab, V domains shown)
VH: B1 VH
VL: B1 VL with H91Q, W93V
notes: Fab on phage pIX
For the molecule B30, the “% of Lc16Hc7” value was found to be 229%.

B31: Phage # 75 Fab (IL-13-142 library) (Fab, V domains shown)
VH: B1 VH
VL: B1 VL with H91L, D92S, W93Y, G94E
notes: Fab on phage pIX
Regarding B31, the “% of Lc16Hc7” value worked out at 355%.

B32: Phage # 32 Fab (IL-13-142 library) (Fab, V domains shown)
VH: B1 VH
VL: B1 VL with D92L, W93G, G94T
notes: Fab on phage pIX
Regarding B32, the “% of Lc16Hc7” value came to 228%.

B33: Phage # 35 Fab (IL-13-142 library) (Fab, V domains shown)
VH: B1 VH
VL: B1 VL with W93R
notes: Fab on phage pIX
As to B33, the “% of Lc16Hc7” value stood at 296%.

B34: Phage # 18 Fab (IL-13-142 library) (Fab, V domains shown)
VH: B1 VH
VL: B1 VL with H91W, W93G
notes: Fab on phage pIX
Regarding B34, the “% of Lc16Hc7” value came out at 231%.

B35: Phage # 01 Fab (IL-13-142 library) (Fab, V domains shown)
VH: B1 VH
VL: B1 VL with D92W
notes: Fab on phage pIX
With B35, the “% of Lc16Hc7” value is 222%.

B36: Phage # 36 Fab (IL-13-142 library) (Fab, V domains shown)
VH: B1 VH
VL: B1 VL with D92E, W93L
notes: Fab on phage pIX
Regarding B36, the “% of Lc16Hc7” value stood at 196%.

B37: Phage # 44 Fab (IL-13-142 library) (Fab, V domains shown)
VH: B1 VH
VL: B1 VL with W93I
notes: Fab on phage pIX
In the case of B37, the “% of Lc16Hc7” value turned out to be 240%.

B38: Phage # 77 Fab (IL-13-142 library) (Fab, V domains shown)
VH: B1 VH
VL: B1 VL with W93F, G94A
notes: Fab on phage pIX
Consider B38, for which the “% of Lc16Hc7” value came to 195%.

B39: Phage # 43 Fab (IL-13-142 library) (Fab, V domains shown)
VH: B1 VH
VL: B1 VL with D92L, W93G, G94Q
notes: Fab on phage pIX
Turning to B39, the “% of Lc16Hc7” value was 205%.

B40: Phage # 71 Fab (IL-13-142 library) (Fab, V domains shown)
VH: B1 VH
VL: B1 VL with H91P, D92L, W93D, G94S
notes: Fab on phage pIX
Take B40: the “% of Lc16Hc7” value is 208%.

B41: Phage # 74 Fab (IL-13-142 library) (Fab, V domains shown)
VH: B1 VH
VL: B1 VL with H91Q, W93M
notes: Fab on phage pIX
On to B41, for which the “% of Lc16Hc7” value amounted to 301%.

B42: Phage # 67 Fab (IL-13-142 library) (Fab, V domains shown)
VH: B1 VH
VL: B1 VL with H91P, D92I, W93D
notes: Fab on phage pIX
B42: the “% of Lc16Hc7” value came out at 127%.

B43: Phage # 76 Fab (IL-13-142 library) (Fab, V domains shown)
VH: B1 VH
VL: B1 VL with D92L, W93D, G94L
notes: Fab on phage pIX
For B43, the “% of Lc16Hc7” value was 256%.

B44: Phage # 70 Fab (IL-13-142 library) (Fab, V domains shown)
VH: B1 VH
VL: B1 VL with D92S
notes: Fab on phage pIX
Take B44: the “% of Lc16Hc7” value worked out at 308%.
